Data as given in the RNAGym collection of RNA variant scans (doi:10.1101/gr.219683.116).

B1: mRNA-splicing (parent)
chain: AGUUGCUGCUGGGAGCUCCAGCACAGUGAAAUGGACAGAAGGGCAGAGCAA

Variants of: B1
Assay: exon inclusion enrichment index; higher = more inclusion; WT1 exon 5 minigene, HEK293

Row | Variant | exon inclusion enrichment index
1 | AGUUAUAUAUGGGAGCUCCAGCACAGUGAAAUGGACAGAAGGGGUGAGCAA [G5A C6U U7A G8U C9A C44G A45U] | 0.0272
2 | AGUUAUAUACCGGAGCUCCAGCACAGUGAAAUGGACAGAAGGGCAGAGCAA [G5A C6U U7A G8U C9A U10C G11C] | 0.845
3 | AGUUAUAUAUGGGAGCUCCAGCACAGUGAAAUGGACAGCGGGGCAGAGCAA [G5A C6U U7A G8U C9A A39C A40G] | 0.0817
4 | AGUUCGCGCCGGGAUCUCCAGCACAGUGAAAUGGACAGAAGGGCAGAGCAA [G5C C6G U7C U10C G15U] | 3.45
5 | AGUUCACACAGGGAGCGCCAGCACAGUGAAAUGGACAGAAGGGCAGAGCAA [G5C C6A U7C G8A U10A U17G] | 0.0684
6 | AGUUCUUCUCGGGAGCUCCAGCACAGUUUAAUGGACAGAAGGGCAGAGCAA [G5C C6U G8C C9U U10C G28U A29U] | 0.419
7 | AGUUAGGGAUGGGAGCUCCAGCACAGUGAAGUGGACAGAAGGGCAGAGCAA [G5A C6G U7G C9A A31G] | 0.00766
8 | AGUUUCUUUUGGGAGCUCCAGCUUAGUGAAAUGGACAGAAGGGCAGAGCAA [G5U G8U C9U A23U C24U] | 0.00337
9 | AGUUGACGACGGGAGCUCCAGCACAGUGAUGUGGACAGAAGGGCAGAGCAA [C6A U7C C9A U10C A30U A31G] | 3.73
10 | AGUUGAAUCAGGGAGCUCCAGCACAGUGAAAUGGACAGAAGGGCAGAGCAA [C6A U7A G8U U10A] | 0.0805
11 | AGUUAUAUAUGGCGGCUCCAGCACAGUGAAAUGGACAGAAGGGCAGAGCAA [G5A C6U U7A G8U C9A G13C A14G] | 0.145
12 | AGUUGACGACGGGAGCUCCAGCACAGUGAAAUGGACAGAAGGGCAUAGCAA [C6A U7C C9A U10C G46U] | 2.22
13 | AGUUCUUCUCGGGAGCUCCAGCACAGUGAAAUGGACAGAAGGCAAGAGCAA [G5C C6U G8C C9U U10C G43C C44A] | 3.17
14 | AGUUCUUCUCGGGAAUUCCAGCACAGUGAAAUGGACAGAAGGGCAGAGCAA [G5C C6U G8C C9U U10C G15A C16U] | 1.27
15 | AGUUACCACCGGGAGCUCCAGCACAGUGAAAUGGAUCGAAGGGCAGAGCAA [G5A U7C G8A U10C C36U A37C] | 1.63
16 | AGUUGCUGCUGGGAGCUCCAGCACAGUGAAAUGGACAGAAGGGACGAGCAA [C44A A45C] | 0.767
17 | AGUUGCUGCUGGGAGCUCCAGCACAGUGAAAUGGACAGAAGGGAGGAGCAA [C44A A45G] | 0.233
18 | AGUUCGCGCCGGGAGCUCCAGCACAGUUCAAUGGACAGAAGGGCAGAGCAA [G5C C6G U7C U10C G28U A29C] | 2.89
19 | AGUUAGGGAUGGGAGCUCCAGCACAGUGAAAUGGGCAGAAGGGCAGAGCAA [G5A C6G U7G C9A A35G] | 0.00109
20 | AGUUGACGACGGGAGCUCCAGCACAGUGAAAUGGACAGAAGGGCAGAACAA [C6A U7C C9A U10C G48A] | 3.5
21 | AGUUAGGGAUGGGAGCUCCAGCACAGUGAAAUGGACAGAAGGGUGGAGCAA [G5A C6G U7G C9A C44U A45G] | 0.00135
22 | AGUUGCUGCUGGGAGCUCCAUGACAGUGAAAUGGACAGAAGGGCAGAGCAA [G21U C22G] | 2.39
23 | AGUUACCACCGGGAGCUCCAGCACAGUGAAACAGACAGAAGGGCAGAGCAA [G5A U7C G8A U10C U32C G33A] | 1.18
24 | AGUUACCACCUCGAGCUCCAGCACAGUGAAAUGGACAGAAGGGCAGAGCAA [G5A U7C G8A U10C G11U G12C] | 0.738
25 | AGUUUCUUUUGGGAGCUCCAGCACAGUGAAAUGGAGAGAAGGGCAGAGCAA [G5U G8U C9U C36G] | 0.0708
26 | AGUUGCUGCUGGGAGCUCCAGCACUCUGAAAUGGACAGAAGGGCAGAGCAA [A25U G26C] | 0.235

Row | Variant | exon inclusion enrichment index
27 | AGUUAAAGAUGGGAGCUCCAGCACAGUGAAAUGGACAGAAGGGCAGAGCAA [G5A C6A U7A C9A] | 0.386
28 | AGUUGAAGAAGGGCUCUCCAGCACAGUGAAAUGGACAGAAGGGCAGAGCAA [C6A U7A C9A U10A A14C G15U] | 0.408
29 | AGUUGACGACGGGAGCUCCAAAACAGUGAAAUGGACAGAAGGGCAGAGCAA [C6A U7C C9A U10C G21A C22A] | 2.06
30 | AGUUAUAUAUGGGAGCUCCAGCACAGUGAAAUGGACACGAGGGCAGAGCAA [G5A C6U U7A G8U C9A G38C A39G] | 0.115
31 | AGUUCUUCUCGGGAGCUCCAGCACAGUGAAAUGGACAGAAGGGCAAAGCAA [G5C C6U G8C C9U U10C G46A] | 2.05
32 | AGUUUCUUUUGGGAGCUCCAGCACAGUGAAAGUGACAGAAGGGCAGAGCAA [G5U G8U C9U U32G G33U] | 0.0291
33 | AGUUGAAGAAGGGAGCUCCAGAGCAGUGAAAUGGACAGAAGGGCAGAGCAA [C6A U7A C9A U10A C22A A23G] | 0.734
34 | AACUAUAUAUGGGAGCUCCAGCACAGUGAAAUGGACAGAAGGGCAGAGCAA [G2A U3C G5A C6U U7A G8U C9A] | 0.0801
35 | AGUUACCACCGGGAGCUCCAGCACAGUGAAAUGGACACGAGGGCAGAGCAA [G5A U7C G8A U10C G38C A39G] | 2.15
36 | AGUUGCUGCUGGGAGCUCCAGCACAGUGAAAUGGGGAGAAGGGCAGAGCAA [A35G C36G] | 0.00669
37 | AGUUUCUUUUGGGAGAACCAGCACAGUGAAAUGGACAGAAGGGCAGAGCAA [G5U G8U C9U C16A U17A] | 0.0994
38 | AGUUGACGACGGGAGCUCCAGCACAGGUAAAUGGACAGAAGGGCAGAGCAA [C6A U7C C9A U10C U27G G28U] | 0.0137
39 | AGUUGCUGCUGGGAGGUCCAGCACAGUGAAAUGGACAGAAGGGCAGAGCAA [C16G] | 0.103
40 | AGUUGAAGAAGGGAGGCCCAGCACAGUGAAAUGGACAGAAGGGCAGAGCAA [C6A U7A C9A U10A C16G U17C] | 0.22
41 | AGUUACCACCGGGAGCUCCAGCACACGGAAAUGGACAGAAGGGCAGAGCAA [G5A U7C G8A U10C G26C U27G] | 3.53
42 | AGUUGAAGAAGGGAGCUCCAGCACAGUGAAAUAGACAGAAGGGCAGAGCAA [C6A U7A C9A U10A G33A] | 0.0584
43 | AGUUACCACCGGGAGCUCCAGCACAGUGAAAUGGACAGGUGGGCAGAGCAA [G5A U7C G8A U10C A39G A40U] | 0.283
44 | AGUUGACUAAGGGAGCUCCAGCACAGUGAAAUGGACAGAAGGGCAGAGCAA [C6A U7C G8U C9A U10A] | 0.176
45 | AGUUUCUUUUGGGAGCUAUAGCACAGUGAAAUGGACAGAAGGGCAGAGCAA [G5U G8U C9U C18A C19U] | 0.0019
46 | AGUUUCUUUUGGGAGCUAAAGCACAGUGAAAUGGACAGAAGGGCAGAGCAA [G5U G8U C9U C18A C19A] | 0.00397
47 | AGUAGACGACGGGAGCUCCAGCACAGUGAAAUGGACAGAAGGGCAGAGCAA [U4A C6A U7C C9A U10C] | 1.35
48 | AGUUGCUGCUGGGAGCUGAAGCACAGUGAAAUGGACAGAAGGGCAGAGCAA [C18G C19A] | 2.92
49 | AGUUAUAUAUGGGAGCUCCAGCACAGUGAAAUGGACUGAAGGGCAGAGCAA [G5A C6U U7A G8U C9A A37U] | 0.0684
50 | AGUUGACGACGGGUGCUCCAGCACAGUGAAAUGGACAGAAGGGCAGAGCAA [C6A U7C C9A U10C A14U] | 1.94
51 | AGUUAUUCUCGGGAGCUCCAGCACAGUGAAAUGGACAGAAGGGCAGAGCAA [G5A C6U G8C C9U U10C] | 0.807
